Tested on: engineered chimeric receptor SEQ ID NO: 33 and its mutants (human α7-nAChR ligand binding domain / human GlyRα1 ion pore domain) in Lenti-X 293T cells
Assay: YFP fluorescence quenching anion reporter plate reader assay (percent quench, EC50)
Format: cell-based
Settings: for YFP fluorescence quenching using CNL001 (percent quench): receptor named in row; for YFP fluorescence quenching using Varenicline, 3 nM var: ligand Varenicline 3 nM; for YFP fluorescence quenching using Varenicline, 30 nM var: ligand Varenicline 30 nM; for YFP fluorescence quenching using Varenicline, 300 nM var: ligand Varenicline 300 nM; for YFP fluorescence quenching using Varenicline, 500 nM var: ligand Varenicline 500 nM; for YFP fluorescence quenching using Varenicline, 1 uM var: ligand Varenicline 1 uM
Method in brief: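 Percent quench compares mean YFP signal over the final 10 s with the 15 s baseline before ligand, added in iodide-containing extracellular solution (pH 7.2). Cells were LX293T carrying a YFP anion reporter, transiently transfected with the channel construct; plates were preincubated 30 min at 37 °C.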

B1: CODA1025: engineered receptor: R101F, L131G in SEQ ID NO: 33 (protein)
chain: MRCSPGGVWLALAASLLHVSLQGEFQRKLYKELVKNYNPLERPVANDSQPLTVYFSLSLLQIMDVDEKNQVLTTNIWLQMSWTDHYLQWNVSEYPGVKTVFFPDGQIWKPDILLYNSADERFDATFHTNVGVNSSGHCQYLPPGIFKSSCPMDLKNFPMDVQTCKLKFGSWSYGGWSLDLQMQEADISGYIPNGEWDLVGIPGKRSERFYECCKEPYPDVTFTVTMRRRMGYYLIQMYIPSLLIVILSWISFWINMDAAPARVGLGITTVLTMTTQSSGSRASLPKVSYVKAIDIWMAVCLLFVFSALLEYAAVNFVSRQHKELLRFRRKRRHHKSPMLNLFQEDEAGEGRFNFSAYGMGPACLQAKDGISVKGANNSNTTNPPPAPSKSPEEMRKLFIQRAKKIDKISRIGFPMAFLIFNMFYWIIYKIVRREDVHNQ
modifications: synthetic sequence of chimeric LGIC
YFP fluorescence quenching using CNL001 (percent quench) (1 nM CNL001, first column so headed): −18.527% | YFP fluorescence quenching using CNL001 (percent quench) (1 nM CNL001, second column so headed): −21.577% | YFP fluorescence quenching using TC-5619/Bradanicline (percent quench) (1 nM brd (TC-5619/Bradanicline)): −10.61% | YFP fluorescence quenching using TC-5619/Bradanicline (percent quench) (3 nM brd (TC-5619/Bradanicline)): 2.63% | YFP fluorescence quenching using CNL001 (percent quench) (10 nM CNL001, first column so headed): 14.063% | YFP fluorescence quenching using CNL001 (percent quench) (10 nM CNL001, second column so headed): 49.818% | YFP fluorescence quenching using TC-5619/Bradanicline (percent quench) (10 nM brd (TC-5619/Bradanicline)): 17.71% | YFP fluorescence quenching using TC-6683 (percent quench) (30 nM TC-6683): −1.645% | YFP fluorescence quenching using TC-5619/Bradanicline (percent quench) (30 nM brd (TC-5619/Bradanicline)): 68.48% | YFP fluorescence quenching using CNL001 (percent quench) (50 nM CNL001, first column so headed): 77.765% | YFP fluorescence quenching using CNL001 (percent quench) (50 nM CNL001, second column so headed): 79.23% | YFP fluorescence quenching using ABT-126 (percent quench) (50 nM abt (ABT-126)): −11.53% | YFP fluorescence quenching using CNL001 (percent quench) (100 nM CNL001, first column so headed): 80.544% | YFP fluorescence quenching using CNL001 (percent quench) (100 nM CNL001, second column so headed): 80.695% | YFP fluorescence quenching (percent quench) (100 nM CNL002): 12.48% | YFP fluorescence quenching using ABT-126 (percent quench) (100 nM abt (ABT-126)): −7.61% | YFP fluorescence quenching using AZD-0328 (percent quench) (100 nM azd0328): 6.26% | YFP fluorescence quenching using TC-6683 (percent quench) (300 nM TC-6683): 3.043% | YFP fluorescence quenching using ABT-126 (percent quench) (300 nM abt (ABT-126)): 6.55% | YFP fluorescence quenching using AZD-0328 (percent quench) (300 nM azd0328): 37.98% | YFP fluorescence quenching using TC-5619/Bradanicline (percent quench) (300 nM brd (TC-5619/Bradanicline)): 75.12% | YFP fluorescence quenching using CNL001 (percent quench) (1 uM CNL001, first column so headed): 81.191% | YFP fluorescence quenching using CNL001 (percent quench) (1 uM CNL001, second column so headed): 82.385% | YFP fluorescence quenching (percent quench) (1 uM CNL002): 46.04% | YFP fluorescence quenching using ABT-126 (percent quench) (1 uM abt (ABT-126)): 25.08% | YFP fluorescence quenching using TC-6683 (percent quench) (3 uM TC-6683): 0.082% | YFP fluorescence quenching (percent quench) (10 uM ach (acetylcholine)): 12.57% | YFP fluorescence quenching (percent quench) (30 uM CNL002): 39.82% | YFP fluorescence quenching using TC-6683 (percent quench) (30 uM TC-6683): 2.449% | YFP fluorescence quenching using AZD-0328 (percent quench) (30 uM azd0328): 79.31% | YFP fluorescence quenching (percent quench) (50 uM ach (acetylcholine)): −3.46% | YFP fluorescence quenching using TC-6683 (percent quench) (100 uM TC-6683): 10.437% | YFP fluorescence quenching (percent quench) (100 uM ach (acetylcholine)): 12.65% | YFP fluorescence quenching (percent quench) (300 uM ach (acetylcholine)): −6.96% | YFP fluorescence quenching (percent quench) (500 uM ach (acetylcholine)): −6.77% | YFP fluorescence quenching (percent quench) (1 mM ach (acetylcholine)): 19.42% | YFP fluorescence quenching (percent quench) (3 mM ach (acetylcholine)): 65.06% | YFP fluorescence quenching using Facinicline, 30 nM fac (ligand Facinicline 30 nM): −8.99 | YFP fluorescence quenching using Facinicline, 300 nM fac (ligand Facinicline 300 nM): 10.21 | YFP fluorescence quenching using Facinicline, 30 uM fac (ligand Facinicline 30 uM): 78.24 | YFP fluorescence quenching using TC-6987, 1 uM tc6987 (ligand TC-6987 1 uM): −13.32 | YFP fluorescence quenching using TC-6987, 10 uM tc6987 (ligand TC-6987 10 uM): 43.71 | YFP fluorescence quenching using TC-6987, 500 uM tc6987 (ligand TC-6987 500 uM): 53.98 | YFP fluorescence quenching using Varenicline, 3 nM var (first column): 48.074 | YFP fluorescence quenching using Varenicline, 3 nM var (second column): 60.978 | YFP fluorescence quenching using Varenicline, 30 nM var (first column): 70.023 | YFP fluorescence quenching using Varenicline, 30 nM var (second column): 69.433 | YFP fluorescence quenching using Varenicline, 300 nM var (first column): 78.989 | YFP fluorescence quenching using Varenicline, 300 nM var (second column): 79.21 | YFP fluorescence quenching using Varenicline, 500 nM var (first column): 79.212 | YFP fluorescence quenching using Varenicline, 500 nM var (second column): 79.771 | YFP fluorescence quenching using Varenicline, 1 uM var (first column): 79.538 | YFP fluorescence quenching using Varenicline, 1 uM var (second column): 80.577

— patent publication US20250152742A1, “COMPOSITIONS AND METHODS FOR NEUROLOGICAL DISEASES” (Trames Bio, Inc., priority 2022, published 2025)
